From PMC4352251, “The VieB auxiliary protein negatively regulates the VieSA signal transduction system in Vibrio cholerae” (BMC Microbiology, 2015)
pKd: −log10 of the molar value.

Target: VieS-C (untagged cytoplasmic portion of the sensor kinase VieS) (UniProt O68317)
Assay: composition-gradient MALS (CG-MALS)

VieB D62E (His6 tag removed) (from UniProt O68319 1-553) (natural protein)
pKd: 6.71 | stoichiometry N (VieB D62E monomer per VieS-C dimer): 1
